Experimental data as given in paper PMC4525488, “Structure-based Mechanistic Insights into Terminal Amide Synthase in Nosiheptide-Represented Thiopeptides Biosynthesis” (Scientific Reports, 2015).

B1: C-terminal NosA_(112-151) peptide (peptide, UniProt C6FX40 112-151, looked up)
chain: APFGKGLGLAFDPASPEPLTRPQEFVPPGADAFIPSRPPA
notes: NosA, terminal amide synthase of nosiheptide biosynthesis; Cloned in the pSMT3 vector; source: 15N-labelled in M9 medium for NMR
B2: full-length NosA (wild type) (enzyme, UniProt C6FX40 1-151, looked up)
chain: MTEHPAQQLYCTVVLWDLSRSAATVASLRAYLRDHAVDAYTTVPGLRQKTWISSTGPEGEQWGAVYLWDSPEAAYGRPPGVSKVVELIGYRPTERRYYSVEAATEGPAAAAAPFGKGLGLAFDPASPEPLTRPQEFVPPGADAFIPSRPPA
notes: NosA, terminal amide synthase of nosiheptide biosynthesis; Cloned in pET28a by NheI and HindIII; also called WT NosA; WT full-length NosA
B3: selenomethionine NosA_(1-111) (domain or fragment, UniProt C6FX40 1-111, looked up)
chain: MTEHPAQQLYCTVVLWDLSRSAATVASLRAYLRDHAVDAYTTVPGLRQKTWISSTGPEGEQWGAVYLWDSPEAAYGRPPGVSKVVELIGYRPTERRYYSVEAATEGPAAAA
modifications: selenomethionine in place of methionine (one Met residue at the N-terminal sequence)
notes: NosA, terminal amide synthase of nosiheptide biosynthesis; the crystallised form
B4: truncated NosA_(1-111) variant (domain or fragment, UniProt C6FX40 1-111, looked up)
chain: B3 chain
notes: NosA, terminal amide synthase of nosiheptide biosynthesis

Columns and labels:
[1] = target: B4; experiment: ITC; ITC-200, 20 mM Tris-HCl, 150 mM NaCl, pH 7.0, 298 K; who was in the syringe is not told; conditions: both partners purified
[2] = target: the molecule itself; experiment: SEC; Superdex 75 10/300 GL, 50 mM Tris-HCl pH 7.5, 50 mM NaCl; retention compared with gel filtration markers of 44 kDa and 17 kDa
[3] = target: the molecule itself; experiment: crystal structure; Se-Met NosA_(1-111), sitting-drop vapor diffusion at 293 K; 0.02 M magnesium chloride hexahydrate, 0.1 M HEPES pH 6.0-9.0, 22% w/v polyacrylic acid 5100; SAD, 2.40 Å

Binder | stoichiometry N [2] | further results
B1 | – | Kd [1]: 2400 ± 1200 µM
B2 | 2 | –
B3 | – | binding result [3]: binds
B4 | 2 | –
